Assay results published in publication PMC11281603.

Target: polymeric Ig receptor (pIgR) fused to the FLAG tag (UniProt P01833)
Experiment: flow cytometry on cells

Sequence of UniProt P01833 (P01833 19-764): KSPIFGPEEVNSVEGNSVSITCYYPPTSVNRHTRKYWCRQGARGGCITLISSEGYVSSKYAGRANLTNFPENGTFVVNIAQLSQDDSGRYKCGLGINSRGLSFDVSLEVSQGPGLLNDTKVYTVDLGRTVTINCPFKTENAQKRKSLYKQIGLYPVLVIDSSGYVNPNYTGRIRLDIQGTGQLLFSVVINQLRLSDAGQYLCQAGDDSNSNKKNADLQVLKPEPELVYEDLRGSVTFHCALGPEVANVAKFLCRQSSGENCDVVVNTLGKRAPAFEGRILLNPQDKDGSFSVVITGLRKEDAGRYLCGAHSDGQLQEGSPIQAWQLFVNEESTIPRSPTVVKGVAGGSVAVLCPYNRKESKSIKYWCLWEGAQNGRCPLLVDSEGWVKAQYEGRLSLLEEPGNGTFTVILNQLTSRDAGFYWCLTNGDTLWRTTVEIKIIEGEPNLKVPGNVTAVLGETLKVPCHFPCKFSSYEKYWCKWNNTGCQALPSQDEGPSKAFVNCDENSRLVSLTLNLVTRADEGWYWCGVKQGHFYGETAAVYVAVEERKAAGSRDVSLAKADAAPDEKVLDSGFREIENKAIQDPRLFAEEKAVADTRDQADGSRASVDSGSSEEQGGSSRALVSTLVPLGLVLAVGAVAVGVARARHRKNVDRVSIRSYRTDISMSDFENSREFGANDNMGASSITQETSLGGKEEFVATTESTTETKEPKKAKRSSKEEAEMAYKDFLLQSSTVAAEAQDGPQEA

IgA from human colostrum (from UniProt P01591 23-159) (ligand)
mean percent binding to pIgR-expressing cells, ORF8-expressing cells: 36.9% | mean percent binding to pIgR-expressing cells, control cells: 59.6% | percent ORF8 binding left with 10 ug/mL IgA: 18%

IgM from human serum (ligand)
mean percent binding to pIgR-expressing cells, ORF8-expressing cells: 25.1% | mean percent binding to pIgR-expressing cells, control cells: 33.9%
